Reference: article PMC8099091, “Heterogeneous multimeric structure of isocitrate lyase in complex with succinate and itaconate provides novel insights into its inhibitory mechanism” (PLoS ONE, 2021)

Molecular target: the molecule itself
Experiment: SEC-MALS; Superdex 200 Increase 10/300 GL, 20 mM Tris-HCl pH 8.0, 150 mM NaCl, 0.4 mL/min, 20°C; repeated under various conditions with the same results

B1: isocitrate lyase from Mycobacterium tuberculosis (tbICL) (enzyme)
chain: MSVVGTPKSAEQIQQEWDTNPRWKDVTRTYSAEDVVALQGSVVEEHTLARRGAEVLWEQLHDLEWVNALGALTGNMAVQQVRAGLKAIYLSGWQVAGDANLSGHTYPDQSLYPANSVPQVVRRINNALQRADQIAKIEGDTSVENWLAPIVADGEAGFGGALNVYELQKALIAAGVAGSHWEDQLASEKKCGHLGGKVLIPTQQHIRTLTSARLAADVADVPTVVIARTDAEAATLITSDVDERDQPFITGERTREGFYRTKNGIEPCIARAKAYAPFADLIWMETGTPDLEAARQFSEAVKAEYPDQMLAYNCSPSFNWKKHLDDATIAKFQKELAAMGFKFQFITLAGFHALNYSMFDLAYGYAQNQMSAYVELQEREFAAEERGYTATKHQREVGAGYFDRIATTVDPNSSTTALTGSTEEGQFH
notes: Tetramer in solution by SEC-MALS; dimer (subunits A and B) in the asymmetric unit, tetramer by twofold crystal symmetry; Theoretical monomer mass 47.08 kDa including the C-terminal His-tag; also called tbICL1; isocitrate lyase isoform 1; not shown: His-tag, C-terminal, kept
With B1 the “stoichiometry N” value was 4.
